The values that follow come from patent publication US20220389119A1.

In the assay the target is WT Fc chain lacking a warhead. In words: co-expression in HEK 293 EBNA1, protein A purification, non-reduced micro-capillary gel electrophoresis; 50 kDa = Fc homodimer lacking warheads.

The substance WT Fc chain lacking a warhead gave an NR-mCE 50 kDa (%) of 21.4%.
